US20050153872A1, “Methods and compositions for the treatment of infection” (priority 2004, published 2005)

What was measured:
Acenetobactor (20) = test: In vitro antibacterial activity (MIC), clinical isolates; format: cell-based; conditions: 20 Acenetobactor clinical isolates
Procedure, shortened: (§1)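 Clinical isolates collected in Sichuan and Beijing in 2002, identified with the API system, were exposed to test compound to determine MIC50, MIC90 and MIC range. S. aureus ATCC25923, 29213 and BAA-42 served as control strains.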

Enterococcus (20) = test: as above; format: cell-based; conditions: 20 Enterococcus clinical isolates
Procedure, shortened: as §1

[1] = test system: Staphylococcus aureus MRSA strain (80); test: as above; format: cell-based; conditions: 80 MRSA clinical isolates
Procedure, shortened: as §1

[2] = test system: Staphylococcus aureus MSSA strain (88); test: as above; format: cell-based; conditions: 88 MSSA clinical isolates
Procedure, shortened: as §1

[3] = test system: Staphylococcus epidermidis MRSE strain (25); test: as above; format: cell-based; conditions: 25 MRSE clinical isolates
Procedure, shortened: as §1

[4] = test system: Staphylococcus epidermidis MSSE strain (21); test: as above; format: cell-based; conditions: 21 MSSE clinical isolates
Procedure, shortened: as §1

[5] = test system: Enterococcus faecalis ATCC 700802; test: microbe, parasite or virus in culture; format: cell-based; conditions: Enterococcus faecalis, ATCC700802
[6] = test system: Enterococcus faecalis ATCC 700802; test: In vivo protection of infected mice; design: species or system Kungming mice; conditions: mice, i.p. infection 8.0 × 10^6 cfu/ml
Procedure, shortened: (§2)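 Kunming mice (18–22 g, both sexes) were infected intraperitoneally with a lethal dose of staphylococci, enterococci or E. coli; agents were diluted in sterile water to 10, 5 and 2.5 mg/L. Deaths were counted every 24 h over 7–14 days.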

[7] = test system: Staphylococcus aureus MRSA 02-18; test: In vivo protection of infected mice; design: species or system Kungming mice; conditions: mice, i.p. infection 1.7 × 10^5 cfu/ml
Procedure, shortened: as §2

[8] = test system: Staphylococcus aureus MRSA BAA-42; test: In vivo protection of infected mice; design: species or system Kungming mice; conditions: mice, i.p. infection 5.5 × 10^5 cfu/ml
Procedure, shortened: as §2

[9] = test system: Staphylococcus aureus MRSA BAA-42; test: microbe, parasite or virus in culture; format: cell-based; conditions: Staphylococcus aureus MRSA BAA-42
[10] = test system: Staphylococcus aureus MRSA 02-18; test: microbe, parasite or virus in culture; format: cell-based; conditions: Staphylococcus aureus MRSA 02-18
[11] = test system: Staphylococcus aureus ATCC 29213; test: MIC against challenge strain (Table 3); format: cell-based
Escherichia coli 02-1-65 [12] = test: In vivo protection of infected mice; design: species or system Kungming mice; conditions: i.p. infection 3.3 × 10^5 cfu/ml
Procedure, shortened: as §2

[13] = test system: Staphylococcus aureus ATCC 29213; test: In vivo protection of infected mice; design: species or system Kungming mice; conditions: i.p. infection 3.6 × 10^5 cfu/ml
Procedure, shortened: as §2

Escherichia coli 02-1-65 [14] = test: MIC against challenge strain (Table 3); format: cell-based
MRSA strain ATCC BAA-42 = test: Electron micrographs of bactericidal effects; format: cell-based, S. aureus; conditions: Ph-SA 50 μg/ml 0.5 hrs; wild type colicin Ia 50 μg/ml 2 hrs; AgrDI 10 μg/ml 2 hrs
Source text: Electron Micrographs of Bactericidal Effects of Ph-SA1 Against ATCC BAA-42 MRSA Strain Cells (1% Phosphotungstic Acid. 25,000×)

[15] = test system: S. epidermidis BQIOC 26069; format: cell-based; conditions: all agents at 2 ug/ml
Protocol: All agents were at 2 ug/ml.

ATCC 700802 VRE cells = test: Electron micrographs of bactericidal effects of Ph-EF; format: cell-based, Enterococcus; conditions: Ph-EF 10 ug/ml 0.5 and 2 hr; Ph-SA 10 ug/ml 2 hr; vancomycin 20 ug/ml 2 hr
Protocol: Electron Microraphs of Bactericidal Effects of Ph-EF Against ATCC 700802 VRE Cells (1% Phosphotungstic Acid, 15.000×).
Bactericidal effects of ph-EF were tested and monitored by electron microscopy. FIG. 16 depicts electron micrographs of (a) untreated cells; (b) and (c) cells treated with Ph-EF (10 ug/ml) for 0.5 hr; (d) untreated cells for 2 hr; (e) cells treated by Ph-SA (10 ug/ml) for 2 hr; (f) cells treated with vancomycin (20 ug/ml) for 2 hr; (g) and (h) cells treated with Ph-EF (10 ug/ml) for 2 hrs.

[16] = test system: HL-7702 human liver cells; test: Toxicity assessment in mammalian cells; format: cell-based; conditions: about 200 micrograms per ml; 48 hours incubation
Protocol: (§3) To assess potential toxicity to mammalian cells, HL-7702 human liver cells and SMMC-7721 human hepatocellular carcinoma cells (Institute of Biochemistry & Cell Biology, Shanghai, Chinese Academy of Science) were grown in 1640 medium and treated with various fusion peptides. The concentration of antivirus and antibacterial peptides used for treating the cells was about 200 micrograms per ml. Equal amounts of stock solution (20 mM PBS, pH 7.4) was added to the control cells.

[17] = test system: SMMC-7721 human hepatocellular carcinoma cells; test: Toxicity assessment in mammalian cells; format: cell-based; conditions: about 200 micrograms per ml; 48 hours incubation
Protocol: as §3

[18] = test system: Aspergillus niger SWA 1011 strain; test: In vitro cell growth inhibition assay; conditions: Ph-CA 5 μg/ml; Ph-SA 5 μg/ml; amphotericin B 200 ng/ml; Fluconazole 3 μg/ml
[19] = test system: Candida albicans ATCC 10231; test: In vitro cell growth inhibition assay (OD595, filaments); conditions: Ph-CA 5 μg/ml; Ph-SA 5 μg/ml; ampicillin 50 μg/ml; amphotericin B 200 ng/ml; fluconazole 3 μg/ml
[20] = test system: S. aureus strain ATCC BAA-42 MRSA; conditions: all agents 5 μg/ml
[21] = 1st Time, i.v. treatment after one hour
[22] = 2nd Time (value in parentheses), i.v. treatment

B1: Ph-SA1: Colicin Ia linked to the AgrDI pheromone of S. aureus (protein)
chain: SDPVRITNPGAESLGYDSDGHEIMAVDIYVNPPRVDVFHGTPPAWSSFGNKTIWGGNEWVDDSPTRSDIEKRDKEITAYKNTLSAQQKENENKRTEAGKRLSAAIAAREKDENTLKTLRAGNADAADITRQEFRLLQAELREYGFRTEIAGYDALRLHTESRMLFADADSLRISPREARSLIEQAEKRQKDAQNADKKAADMLAEYERRKGILDTRLSELEKNGGAALAVLDAQQARLLGQQTRNDRAISEARNKLSSVTESLNTARNALTRAEQQLTQQKNTPDGKTIVSPEKFPGRSSTNHSIVVSGDPRFAGTIKITTSAVIDNRANLNYLLSHSGLDYKRNILNDRNPVVTEDVEGDKKIYNAEVAEWDKLRQRLLDARNKITSAESAVNSARNNLSARTNEQKHANDALNALLKEKENIRNQLSGINQKIAEEKRKQDELKATKDAINFTTEFLKSVSEKYGAKAEQLAREMAGQAKGKKIRNVEEALKTYEKYRADINKKINAKDRAAIAAALESVKLSDISSNLNRFSRGLGYAGKFTSLADWITEFGKAVRTENWRPLFVKTETIIAGNAATALVALVFSILTGSALGIIGYGLLMAVTGALIDESLVEKANKFWGIYSTCDFIM
modifications: Colicin attached to Pheromone peptide encoding Staphylococcus aureus AgrDI
MIC50 (Acenetobactor (20)): 32 µg/mL | MIC90 (Acenetobactor (20)): >64 µg/mL | MIC50 (Enterococcus (20)): >64 µg/mL | MIC90 (Enterococcus (20)): >64 µg/mL | MIC50 [1]: 16> mg/l | MIC90 [1]: 16 µg/mL | MIC Scope [1]: <0.0005˜64 mg/l | MIC50 [2]: 0.5 µg/mL | MIC90 [2]: 16 µg/mL | MIC50 [3]: >64 µg/mL | MIC90 [3]: >64 µg/mL | MIC50 [4]: 0.25 µg/mL | MIC90 [4]: 16 µg/mL | MIC Scope [4]: 0.125˜32 mg/l | MIC [5]: 4 µg/mL | ED50 [6, 21]: 4.23 mg/kg | ED50 [6, 22]: (3.70) mg/kg | ED50 [7, 21]: 3.84 mg/kg | ED50 [7, 22]: (4.24) mg/kg | ED50 [8, 21]: 4.32 mg/kg | ED50 [8, 22]: (4.23) mg/kg | MIC [9]: 0.5 µg/mL | MIC [10]: 0.5 µg/mL | MIC [11]: 0.25 µg/mL | ED50 (Escherichia coli 02-1-65 [12]; [21]): 3.14 mg/kg | ED50 (Escherichia coli 02-1-65 [12]; [22]): (3.12) mg/kg | ED50 [13, 21]: 10.35 mg/kg | ED50 [13, 22]: (8.87) mg/kg | MIC (Escherichia coli 02-1-65 [14]): 1 µg/mL | bactericidal effect / effect on cell growth (electron micrographs) (MRSA strain ATCC BAA-42): killed BAA-42 MRSA cells | inhibition of cell growth [15]: only partially inhibited | morphological alteration in VRE cells (electron micrographs) (ATCC 700802 VRE cells): no morphological alteration | cell morphology and cell growth (toxicity) [16]: not toxic to the liver cells | cell morphology and cell growth (toxicity) [17]: not toxic to the liver cells | effect on growth of Aspergillus niger [18]: no effect on the growth | effect on growth of Candida albicans [19]: no effect on the growth | inhibition of growth [20]: best inhibitory effects
